The target in this assay is E. coli His-α ΔCTD (His-α Δ235, α 1–234) (E. coli, UniProt P0A7Z4 1-234). Briefly: BLI.

B1: LuxR (native, wild-type), purified (natural protein)
chain: MDSIAKRPRTRLSPLKRKQQLMEIALEVFARRGIGRGGHADIAEIAQVSVATVFNYFPTREDLVDEVLNHVVRQFSNFLSDNIDLDIHARENIANITNAMIELVSQDCHWLKVWFEWSASTRDEVWPLFVTTNRTNQLLVQNMFIKAIERGEVCDQHEPEHLANLFHGICYSIFVQANRSKSEAELTNLVSAYLDMLCIYNREHH
In the case of B1, binding was characterised by a dissociation constant (Kd) of 256 nM.

Source of the values: article PMC6488372 (Molecular microbiology, 2019).
